Laboratory results taken from the supplement of paper PMC10266784.

B1: library; numbered along this chain (parent)
chain: MAAAAAAAAEQQSSNGPVKKSMREKAVERRSVNKEHNSNFKAGYIPIDEDRLHKTGLRGRKGNLAICVIILLFILAVINLIITLVIWAVIRIGPNGCDSMEFHESGLLRFKQVSDMGVIHPLYKSTVGGRRNENLVITGNNQPIVFQQGTTKLSVENNKTSITSDIGMQFFDPRTQNILFSTDYETHEFHLPSGVKSLNVQKASTERITSNATSDLNIKVDGRAIVRGNEGVFIMGKTIEFHMGGNMELKAENSIILNGSVMVSTTRLPSSSSGDQLGSGDWVRYKLCMCADGTLFKVQVTSQNMGCQISDNPCGNTH

Variants of: B1
Test: SGCB cell-surface expression functional score (HA stain, bin4 vs bin1, normalised to synonymous) (log10 ratio); higher = more cell-surface SGCB (functional)
Method in brief: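 Using lentivirus at MOI <0.1, HA-tagged, YFP-fused human beta-sarcoglycan codon-saturation libraries were put into HEK293 cells with stable alpha-, gamma- and delta-sarcoglycan expression, in duplicate transductions. YFP-positive cells were collected by sorting 72 hours later, grown 5–7 days, stained on ice with Alexa Fluor 647 anti-HA, fixed, sorted into four 5% intensity bins and amplicon-sequenced. The functional score takes the median, across codons and transductions, of the log ratio of highest-bin to lowest-bin variant frequency. Within each section, synonymous variants were scaled to mean 0, SD 0.5.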

Point of comparison: MAAAAAAAAEQQSSNGPVKKSMREKAVERRSVNKEHNSNFKAGYIPIDEDRLHKTGLRGRKGNLAICVIILLFILAVINLIITLVIWAVIRIGPNGCDSMEFHESGLLRFKQVSDMGVIHPLYKSTVGGRRNENLVITGNNQPIVFQQGTTKLSVENNKTSITSDIGMQFFDPRTQNILFSTDYETHEFHLPSGVKSLNVQKASTERITSNATSDLNIKVDGRAIVRGNEGVFIMGKTIEFHMGGNMELKAENSIILNGSVMVSTTRLPSSSSGDQLGSGDWVRYKLCICADGTLFKVQVTSQNMGCQISDNPCGNTH [M289I], “SGCB cell-surface expression functional score (log10)” value 0.1. Against it:
- MAAAAAAAAEQQSSNGPVKKSMREKAVERRSVNKEHNSNFKAGYIPIDEDRLHKTGLRGRKGNLAICVIILLFILAVINLIITLVIWAVIRIGPNGCDSMEFHESGLLRFKQVSDMGVIHPLYKSTVGGRRNENLVITGNNQPIVFQQGTTKLSVENNKTSITSDIGMQFFDPRTQNILFSTDYETHEFHLPSGVKSLNVQKASTERITSNATSDLNIKVDGRAIVRGNEGVFIMGKTIEFHMGGNMELKAENSIILNGSVMVSTTRLPSSSSGDQLGSGDWVRYKLMMCADGTLFKVQVTSQNMGCQISDNPCGNTH [C288M] — lower, -1.54
- MAAAAAAAAEQQSSNGPVKKSMREKAVERRSVNKEHNSNFKAGYIPIDEDRLHKTGLRGRKGNLAICVIILLFILAVINLIITLVIWAVIRIGPNGCDSMEFHESGLLRFKQVSDMGVIHPLYKSTVGGRRNENLVITGNNQPIVFQQGTTKLSVENNKTSITSDIGMQFFDPRTQNILFSTDYETHEFHLPSGVKSLNVQKASTERITSNATSDLNIKVDGRAIVRGNEGVFIMGKTIEFHMGGNMELKAENSIILNGSVMVSTTRLPSSSSGDQLGSGDWVRYKLNMCADGTLFKVQVTSQNMGCQISDNPCGNTH [C288N] — lower, -0.51
- MAAAAAAAAEQQSSNGPVKKSMREKAVERRSVNKEHNSNFKAGYIPIDEDRLHKTGLRGRKGNLAICVIILLFILAVINLIITLVIWAVIRIGPNGCDSMEFHESGLLRFKQVSDMGVIHPLYKSTVGGRRNENLVITGNNQPIVFQQGTTKLSVENNKTSITSDIGMQFFDPRTQNILFSTDYETHEFHLPSGVKSLNVQKASTERITSNATSDLNIKVDGRAIVRGNEGVFIMGKTIEFHMGGNMELKAENSIILNGSVMVSTTRLPSSSSGDQLGSGDWVRYKLCCCADGTLFKVQVTSQNMGCQISDNPCGNTH [M289C] — lower, -0.54
- MAAAAAAAAEQQSSNGPVKKSMREKAVERRSVNKEHNSNFKAGYIPIDEDRLHKTGLRGRKGNLAICVIILLFILAVINLIITLVIWAVIRIGPNGCDSMEFHESGLLRFKQVSDMGVIHPLYKSTVGGRRNENLVITGNNQPIVFQQGTTKLSVENNKTSITSDIGMQFFDPRTQNILFSTDYETHEFHLPSGVKSLNVQKASTERITSNATSDLNIKVDGRAIVRGNEGVFIMGKTIEFHMGGNMELKAENSIILNGSVMVSTTRLPSSSSGDQLGSGDWVRYKLCFCADGTLFKVQVTSQNMGCQISDNPCGNTH [M289F] — lower, -1.2
- MAAAAAAAAEQQSSNGPVKKSMREKAVERRSVNKEHNSNFKAGYIPIDEDRLHKTGLRGRKGNLAICVIILLFILAVINLIITLVIWAVIRIGPNGCDSMEFHESGLLRFKQVSDMGVIHPLYKSTVGGRRNENLVITGNNQPIVFQQGTTKLSVENNKTSITSDIGMQFFDPRTQNILFSTDYETHEFHLPSGVKSLNVQKASTERITSNATSDLNIKVDGRAIVRGNEGVFIMGKTIEFHMGGNMELKAENSIILNGSVMVSTTRLPSSSSGDQLGSGDWVRYKLCECADGTLFKVQVTSQNMGCQISDNPCGNTH [M289E] — within 0.2 log units, 0.05
- MAAAAAAAAEQQSSNGPVKKSMREKAVERRSVNKEHNSNFKAGYIPIDEDRLHKTGLRGRKGNLAICVIILLFILAVINLIITLVIWAVIRIGPNGCDSMEFHESGLLRFKQVSDMGVIHPLYKSTVGGRRNENLVITGNNQPIVFQQGTTKLSVENNKTSITSDIGMQFFDPRTQNILFSTDYETHEFHLPSGVKSLNVQKASTERITSNATSDLNIKVDGRAIVRGNEGVFIMGKTIEFHMGGNMELKAENSIILNGSVMVSTTRLPSSSSGDQLGSGDWVRYKLCHCADGTLFKVQVTSQNMGCQISDNPCGNTH [M289H] — lower, -0.85
- MAAAAAAAAEQQSSNGPVKKSMREKAVERRSVNKEHNSNFKAGYIPIDEDRLHKTGLRGRKGNLAICVIILLFILAVINLIITLVIWAVIRIGPNGCDSMEFHESGLLRFKQVSDMGVIHPLYKSTVGGRRNENLVITGNNQPIVFQQGTTKLSVENNKTSITSDIGMQFFDPRTQNILFSTDYETHEFHLPSGVKSLNVQKASTERITSNATSDLNIKVDGRAIVRGNEGVFIMGKTIEFHMGGNMELKAENSIILNGSVMVSTTRLPSSSSGDQLGSGDWVRYKLCGCADGTLFKVQVTSQNMGCQISDNPCGNTH [M289G] — lower, -1.37
- MAAAAAAAAEQQSSNGPVKKSMREKAVERRSVNKEHNSNFKAGYIPIDEDRLHKTGLRGRKGNLAICVIILLFILAVINLIITLVIWAVIRIGPNGCDSMEFHESGLLRFKQVSDMGVIHPLYKSTVGGRRNENLVITGNNQPIVFQQGTTKLSVENNKTSITSDIGMQFFDPRTQNILFSTDYETHEFHLPSGVKSLNVQKASTERITSNATSDLNIKVDGRAIVRGNEGVFIMGKTIEFHMGGNMELKAENSIILNGSVMVSTTRLPSSSSGDQLGSGDWVRYKLCACADGTLFKVQVTSQNMGCQISDNPCGNTH [M289A] — lower, -1
- MAAAAAAAAEQQSSNGPVKKSMREKAVERRSVNKEHNSNFKAGYIPIDEDRLHKTGLRGRKGNLAICVIILLFILAVINLIITLVIWAVIRIGPNGCDSMEFHESGLLRFKQVSDMGVIHPLYKSTVGGRRNENLVITGNNQPIVFQQGTTKLSVENNKTSITSDIGMQFFDPRTQNILFSTDYETHEFHLPSGVKSLNVQKASTERITSNATSDLNIKVDGRAIVRGNEGVFIMGKTIEFHMGGNMELKAENSIILNGSVMVSTTRLPSSSSGDQLGSGDWVRYKLCDCADGTLFKVQVTSQNMGCQISDNPCGNTH [M289D] — lower, -0.92
